Data reported in article PMC2172640 (The Journal of Cell Biology, 2003).

T1: HA95 (human (endogenous in Bjab and HeLa), UniProt Q9ULX6 1-646)
T1 sequence (looked up): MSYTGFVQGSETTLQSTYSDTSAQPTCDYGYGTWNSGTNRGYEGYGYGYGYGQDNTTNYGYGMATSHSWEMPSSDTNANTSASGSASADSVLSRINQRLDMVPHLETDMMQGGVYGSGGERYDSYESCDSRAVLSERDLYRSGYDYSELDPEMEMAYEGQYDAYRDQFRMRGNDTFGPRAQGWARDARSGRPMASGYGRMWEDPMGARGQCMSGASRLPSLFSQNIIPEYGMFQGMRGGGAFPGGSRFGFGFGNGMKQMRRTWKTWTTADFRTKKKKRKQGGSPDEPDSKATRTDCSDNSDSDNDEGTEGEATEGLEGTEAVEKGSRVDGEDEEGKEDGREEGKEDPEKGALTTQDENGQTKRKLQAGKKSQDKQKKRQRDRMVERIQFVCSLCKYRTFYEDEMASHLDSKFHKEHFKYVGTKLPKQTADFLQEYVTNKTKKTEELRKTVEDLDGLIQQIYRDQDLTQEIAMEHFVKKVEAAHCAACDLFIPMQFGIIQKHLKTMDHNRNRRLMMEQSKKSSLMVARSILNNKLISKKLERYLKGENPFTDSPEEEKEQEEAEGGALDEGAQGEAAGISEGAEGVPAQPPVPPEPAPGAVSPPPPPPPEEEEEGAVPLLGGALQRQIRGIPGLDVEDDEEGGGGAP

B1: GST–LAP2β(137–373) (domain or fragment, UniProt Q62733 137-373, looked up)
chain: TRKLYEKKLLKLREQGAESRSSTPLPTVSSSAENTRQNGSNDSDRYSDNDEDSKIELKLEKREPLKGRAKTPVTLKQRRIEHNQSYSEAGVTETEWTSGSSKGGPLQALTRESTRGSRRTPRRRVEPSQHFRVDGAVISESTPIAETIKASSNDSLVANRLTGNFKHASSILPITEFSDITRRTPKKPLTRAEVGEKTEERRVERDILKEMFPYEASTPTGISASCRRPIKGAAGRP
B2: GST–LAP2β(1–397) (domain or fragment, UniProt Q62733 1-397, looked up)
chain: MPEFLEDPSVLTKDKLKSELVANNVTLPAGEQRKDVYVQLYLQHLTARNRPPLAAGANSKGPPDFSSDEEREPTPVLGSGASVGRGRGAVGRKATKKTDKPRPEDKDDLDVTELSNEELLEQLVRYGVNPGPIVGTTRKLYEKKLLKLREQGAESRSSTPLPTVSSSAENTRQNGSNDSDRYSDNDEDSKIELKLEKREPLKGRAKTPVTLKQRRIEHNQSYSEAGVTETEWTSGSSKGGPLQALTRESTRGSRRTPRRRVEPSQHFRVDGAVISESTPIAETIKASSNDSLVANRLTGNFKHASSILPITEFSDITRRTPKKPLTRAEVGEKTEERRVERDILKEMFPYEASTPTGISASCRRPIKGAAGRPLELSDFRMEESFSSKYVPKYVPLA
B3: GST–LAP2β(243–397) (domain or fragment, UniProt Q62733 243-397, looked up)
chain: QALTRESTRGSRRTPRRRVEPSQHFRVDGAVISESTPIAETIKASSNDSLVANRLTGNFKHASSILPITEFSDITRRTPKKPLTRAEVGEKTEERRVERDILKEMFPYEASTPTGISASCRRPIKGAAGRPLELSDFRMEESFSSKYVPKYVPLA
B4: GST–LAP2β(243–373) (domain or fragment, UniProt Q62733 243-373, looked up)
chain: QALTRESTRGSRRTPRRRVEPSQHFRVDGAVISESTPIAETIKASSNDSLVANRLTGNFKHASSILPITEFSDITRRTPKKPLTRAEVGEKTEERRVERDILKEMFPYEASTPTGISASCRRPIKGAAGRP
B5: GST–LAP2β(137–298) (domain or fragment, UniProt Q62733 137-298, looked up)
chain: TRKLYEKKLLKLREQGAESRSSTPLPTVSSSAENTRQNGSNDSDRYSDNDEDSKIELKLEKREPLKGRAKTPVTLKQRRIEHNQSYSEAGVTETEWTSGSSKGGPLQALTRESTRGSRRTPRRRVEPSQHFRVDGAVISESTPIAETIKASSNDSLVANRLT
B6: GST–LAP2β(299–373) (domain or fragment, UniProt Q62733 299-373, looked up)
chain: GNFKHASSILPITEFSDITRRTPKKPLTRAEVGEKTEERRVERDILKEMFPYEASTPTGISASCRRPIKGAAGRP
B7: GST–LAP2β(299–397) (domain or fragment, UniProt Q62733 299-397, looked up)
chain: GNFKHASSILPITEFSDITRRTPKKPLTRAEVGEKTEERRVERDILKEMFPYEASTPTGISASCRRPIKGAAGRPLELSDFRMEESFSSKYVPKYVPLA
B8: GST–LAP2β(1–298) (domain or fragment, UniProt Q62733 1-298, looked up)
chain: MPEFLEDPSVLTKDKLKSELVANNVTLPAGEQRKDVYVQLYLQHLTARNRPPLAAGANSKGPPDFSSDEEREPTPVLGSGASVGRGRGAVGRKATKKTDKPRPEDKDDLDVTELSNEELLEQLVRYGVNPGPIVGTTRKLYEKKLLKLREQGAESRSSTPLPTVSSSAENTRQNGSNDSDRYSDNDEDSKIELKLEKREPLKGRAKTPVTLKQRRIEHNQSYSEAGVTETEWTSGSSKGGPLQALTRESTRGSRRTPRRRVEPSQHFRVDGAVISESTPIAETIKASSNDSLVANRLT
B9: GST–LAP2β(1–452) (domain or fragment, UniProt Q62733 1-452, looked up)
chain: MPEFLEDPSVLTKDKLKSELVANNVTLPAGEQRKDVYVQLYLQHLTARNRPPLAAGANSKGPPDFSSDEEREPTPVLGSGASVGRGRGAVGRKATKKTDKPRPEDKDDLDVTELSNEELLEQLVRYGVNPGPIVGTTRKLYEKKLLKLREQGAESRSSTPLPTVSSSAENTRQNGSNDSDRYSDNDEDSKIELKLEKREPLKGRAKTPVTLKQRRIEHNQSYSEAGVTETEWTSGSSKGGPLQALTRESTRGSRRTPRRRVEPSQHFRVDGAVISESTPIAETIKASSNDSLVANRLTGNFKHASSILPITEFSDITRRTPKKPLTRAEVGEKTEERRVERDILKEMFPYEASTPTGISASCRRPIKGAAGRPLELSDFRMEESFSSKYVPKYVPLADVKSEKTKKGRSVPMWIKMLLFALVAGFLFLVYQAMETNQGNPFTNFLQDTKISN

Target: T1, HA95
Assay: far-Western, overlay or dot blot

| Binder | binding result |
| --- | --- |
| B1 | binds |
| B2 | binds |
| B3 | binds |
| B4 | binds |
| B5 | binds |
| B6 | binds |
| B7 | binds |
| B8 | binds |
| B9 | binds |
